Experimental findings from US20260125469A1 (Hoffmann-La Roche, published 2026) are described below.

Numbering of substitutions follows the chain as printed. Where two headings read alike, the source gives them in different places.

Assay [1] has as its target human CD3 on cells (CD3ε) (human, UniProt P07766 23-207). In words: cell-based or functional assay.
Assay [2] addresses T1, Human CD3ε stalk-Fc(knob)-Avi/CD3δ stalk-Fc(hole) (human).
T1 construct: Heterodimer of CD3 delta and CD3 epsilon ectodomains fused to human Fc with knob-into-hole; also called human CD3ε/δ; CD3 antigen
The experiment in a line: SPR, TCB captured by anti-PG antibody, antigen as analyte, 25°C. The text has this: (§1) For affinity measurements, TCB molecules were captured on a C1 sensorchip (GE Healthcare) surface with immobilized anti-Fc(P329G) IgG (an antibody that specifically binds human IgG₁ Fc(P329G); “anti-PG antibody”—see WO 2017/072210, incorporated herein by reference). The experimental setup is schematically depicted in FIG. 3. Capture IgG was coupled to the sensorchip surface by direct immobilization of around 400 resonance units (RU) using the standard amine coupling kit (GE Healthcare Life Sciences).
(§2) Kinetic constants were derived using the Biacore T200 Evaluation Software (GE Healthcare Life Sciences), to fit rate equations for 1:1 Langmuir binding by numerical integration. The half-life (t_{1/2}) of the interaction was calculated using the formula t_{1/2}=ln2/koff.
(§3) To analyze the interaction to CD3, TCB molecules were captured for 240 s at 25 nM with a flow rate of 10 μl/min. Human and cynomolgus CD3F stalk-Fc(knob)-Avi/CD36-stalk-Fc(hole) were passed at a concentration of 0.14-100 nM with a flow rate of […] through the flow cells for 240 s. The dissociation was monitored for 800 s.

Assay [3] has as its target T2, Cynomolgus CD3ε stalk-Fc(knob)-Avi/CD3δ stalk-Fc(hole) (cynomolgus).
T2 construct: also called cynomolgus CD3ε/δ
Described as above.
Description: as §1, §2, §3

For assay [4], the target named is T1, Human CD3ε stalk-Fc(knob)-Avi/CD3δ …. The experiment in a line: SPR on immobilized human CD3ε/δ after stress, relative to sample kept at -80°C pH 6. Here is the method:
In order to assess the effect of the deamidation site removal and its effect on the stability of the antibodies, the optimized anti-CD3 antibodies (in TCB format) were incubated for 14 days at 37° C., pH 7.4 and at 40° C., pH 6 and further analyzed by SPR for their binding capability to human CD3ε/δ. Samples stored at −80° C. pH 6 were used as reference. The reference samples and the samples stressed at 40° C. were in 20 mM His, 140 mM NaCl, pH 6.0, and the samples stressed at 37° C. in PBS, pH 7.4, all at a concentration of 1.0 mg/ml. After the stress period (14 days) samples in PBS were dialyzed back to 20 mM His, 140 mM NaCl, pH 6.0 for further analysis.
(§4) All SPR experiments were performed on a Biacore T200 instrument (GE Healthcare) at 25° C. with HBS-P+ (10 mM HEPES, 150 mM NaCl pH 7.4, 0.05% Surfactant P20) as running and dilution buffer. Biotinylated human CD3ε/δ (see Example 3, SEQ ID NOs 41 and 42) as well as biotinylated anti-huIgG (Capture Select, Thermo Scientific, #7103262100) were immobilized on a Series S Sensor Chip SA (GE Healthcare, #29104992), resulting in surface densities of at least 1000 resonance units (RU). Anti-CD3 antibodies with a concentration of 2 μg/ml were injected for 30 s at a flow rate of 5 μl/min, and dissociation was monitored for 120 s. The surface was regenerated by injecting 10 mM glycine pH 1.5 for 60 s. Bulk refractive index differences were corrected by subtracting blank injections and by subtracting the response obtained from a blank control flow cell. For evaluation, the binding response 5 seconds after injection end was taken. To normalize the binding signal, the CD3 binding was divided by the anti-huIgG response (the signal (RU) obtained upon capture of the CD3 antibody on the immobilized anti-huIgG antibody). The relative binding activity was calculated by referencing each temperature stressed sample to the corresponding, non-stressed sample.
The experiment was performed as described in Example 4, using the TCB molecules prepared in Example 7.

Assay [5] has the same target. The assay is described as above. Here is the method:
as §4
The experiment was performed as described in Example 4, using the monovalent IgG molecules prepared in Example 19.
The source holds these as a separate data set.

Assay [6] has the same target. The experiment in a line: SPR, monovalent IgG captured by anti-PG antibody, antigen as analyte, 25°C. The protocol: (§5) SPR experiments were performed as described in Example 3, with the monovalent IgG molecules prepared in Example 19.
(§6) To analyze the interaction to CD3, IgG molecules were captured for 240 s at 50 nM with a flow rate of 5 μl/min. Human and cynomolgus CD3F stalk-Fc(knob)-Avi/CD36-stalk-Fc(hole) were passed at a concentration of 0.061-250 nM with a flow rate of […] through the flow cells for 300 s. The dissociation was monitored for 800 s.

Assay [7] has as its target T2, Cynomolgus CD3ε stalk-Fc(knob)-Avi/CD3δ …. The description is as above. The protocol:
as §5, §6

Sequence of human CD3 on cells (CD3ε) (P07766 23-207 limits assumed): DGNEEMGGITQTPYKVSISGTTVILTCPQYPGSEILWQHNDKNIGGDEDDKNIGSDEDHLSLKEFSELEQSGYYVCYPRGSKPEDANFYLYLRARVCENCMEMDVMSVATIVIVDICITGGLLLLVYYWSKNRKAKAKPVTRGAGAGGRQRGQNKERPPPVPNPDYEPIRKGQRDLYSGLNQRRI

B1: CEACAM5-TCB, CEACAM5 CD3 variant P004.042 (bispecific antibody, human IgG1, kappa, L234A L235A)
heavy 1: not shown
heavy 2: QVQLVQSGAEVKKPGSSVKVSCKASGFNIKDTYMHWVRQAPGQGLEWMGRIDPANGNSKYVPKFQGRVTITADTSTSTAYMELSSLRSEDTAVYYCAPFGYYVSDYAMAYWGQGTLVTVSSASTKGPSVFPLAPSSKSTSGGTAALGCLVEDYFPEPVTVSWNSGALTSGVHTFPAVLQSSGLYSLSSVVTVPSSSLGTQTYICNVNHKPSNTKVDEKVEPKSCDKTHTCPPCPAPEAAGGPSVFLFPPKPKDTLMISRTPEVTCVVVDVSHEDPEVKFNWYVDGVEVHNAKTKPREEQYNSTYRVVSVLTVLHQDWLNGKEYKCKVSNKALGAPIEKTISKAKGQPREPQVCTLPPSRDELTKNQVSLSCAVKGFYPSDIAVEWESNGQPENNYKTTPPVLDSDGSFFLVSKLTVDKSRWQQGNVFSCSVMHEALHNHYTQKSLSLSP
light 1: EIVLTQSPATLSLSPGERATLSCRAGESVDIFGVGFLHWYQQKPGQAPRLLIYRASNRATGIPARFSGSGSGTDFTLTISSLEPEDFAVYYCQQTNEDPYTFGQGTKLEIKRTVAAPSVFIFPPSDRKLKSGTASVVCLLNNFYPREAKVQWKVDNALQSGNSQESVTEQDSKDSTYSLSSTLTLSKADYEKHKVYACEVTHQGLSSPVTKSFNRGEC
light 2: EVQLLESGGGLVQPGGSLRLSCAASGFQFDNYAMNWVRQAPGKGLEWVSRIRTKYNEYATYYADSVKGRFTISRDDSKNTLYLQMNSLRAEDTAVYYCVRASNFPQSYVSYFGYWGQGTLVTVSSASVAAPSVFIFPPSDEQLKSGTASVVCLLNNFYPREAKVQWKVDNALQSGNSQESVTEQDSKDSTYSLSSTLTLSKADYEKHKVYACEVTHQGLSSPVTKSFNRGEC
notes: 2+1 IgG CrossFab, inverted; human IgG1 Fc, knob-into-hole, PGLALA; also called P004.042 in CEACAM5-TCB format
In the case of B1, in assay [1], the “EC50 24 h (pM), T-cell mediated lysis of CEACAM5-expressing LS180 tumor cells” value came to 59.1 pM and the “EC50 48 h (pM), T-cell mediated lysis of CEACAM5-expressing LS180 tumor cells” value worked out at 36.9 pM. In assay [2], this molecule had a Kd of 1.31 nM, a koff of 0.00261 s⁻¹, a kon of 2.02e+06 M⁻¹ s⁻¹ and a t1/2 of 4.42 min. In assay [3], this molecule registered a Kd of 0.641 nM, a koff of 0.00162 s⁻¹, a kon of 2.54e+06 M⁻¹ s⁻¹ and a t1/2 of 7.1 min. Also, in assay [4], the “binding activity [%] after 2 weeks at pH 6.0/40°C” value stood at 100% and the “binding activity [%] after 2 weeks at pH 7.4/37°C” value was determined as 99%.

B2: anti-CD3 antibody clone P035.093 in monovalent IgG format (antibody)
heavy: not shown
chain: DKTHTCPPCPAPEAAGGPSVFLFPPKPKDTLMISRTPEVTCVVVDVSHEDPEVKFNWYVDGVEVHNAKTKPREEQYNSTYRVVSVLTVLHQDWLNGKEYKCKVSNKALGAPIEKTISKAKGQPREPQVCTLPPSRDELTKNQVSLSCAVKGFYPSDIAVEWESNGQPENNYKTTPPVLDSDGSFFLVSKLTVDKSRWQQGNVFSCSVMHEALHNHYTQKSLSLSP
light: B1 light 2 with Q28T, D30S, N31S, T53S, E57N, Q106A, G113A
notes: also called monovalent IgG P035.093
For B2, in assay [5], the “binding activity [%] after 2 weeks at pH 6.0/40°C” value turned out to be 100% and the “binding activity [%] after 2 weeks at pH 7.4/37°C” value was determined as 93%. In assay [6], the Kd stood at 0.456 nM, the koff was found to be 0.0014 s⁻¹, the kon is 3.08e+06 M⁻¹ s⁻¹ and the t1/2 is 8.25 min. Also, in assay [7], binding was characterised by a dissociation constant (Kd) of 0.224 nM, the dissociation rate constant (koff) stood at 0.000981 s⁻¹, the kon was 4.38e+06 M⁻¹ s⁻¹ and the t1/2 amounted to 11.8 min.

B3: CD3orig in monovalent IgG format (antibody)
heavy: not shown
chain: B2 chain
light: EVQLLESGGGLVQPGGSLRLSCAASGFTFSTYAMNWVRQAPGKGLEWVSRIRSKYNNYATYYADSVKGRFTISRDDSKNTLYLQMNSLRAEDTAVYYCVRHGNFGNSYVSWFAYWGQGTLVTVSSASVAAPSVFIFPPSDEQLKSGTASVVCLLNNFYPREAKVQWKVDNALQSGNSQESVTEQDSKDSTYSLSSTLTLSKADYEKHKVYACEVTHQGLSSPVTKSFNRGEC
notes: also called monovalent IgG CD3orig
For B3, in assay [5], the “binding activity [%] after 2 weeks at pH 6.0/40°C” value was 97% and the “binding activity [%] after 2 weeks at pH 7.4/37°C” value is 60%. Besides, in assay [6], binding was characterised by a dissociation constant (Kd) of 4.94 nM, the koff was 0.0029 s⁻¹, the kon was found to be 587000 M⁻¹ s⁻¹ and the t1/2 stood at 3.98 min.
